# Measured values taken from patent US20140221281A1 (Sanofi, published 2014).
# *1 amine or outer side, *2 acyl side, *3 side chain or, on linkers, in order; H or OH if unused. Where no end group is shown, it is not given here. Side-chain parts run from the residue outwards. [ ]: non-standard residue; d: D form. The star is where a group is joined. γGlu = O=C(O)[C@H](CCC(=O)[*:2])N[*:1]; Stearoyl = CCCCCCCCCCCCCCCCCC(=O)*; Palmitoyl = CCCCCCCCCCCCCCCC(=O)*; d(αMeK) = C[C@@](N)(CCCCN)C(=O)O; αMeOrn = C[C@](N)(CCCN)C(=O)O; αMeK = C[C@](N)(CCCCN)C(=O)O; Api = NC1(C(=O)O)CCNCC1; Aib = CC(C)(N)C(=O)O
# T1: human GIP receptor (human, UniProt P48546 22-466)
# T1 sequence (looked up): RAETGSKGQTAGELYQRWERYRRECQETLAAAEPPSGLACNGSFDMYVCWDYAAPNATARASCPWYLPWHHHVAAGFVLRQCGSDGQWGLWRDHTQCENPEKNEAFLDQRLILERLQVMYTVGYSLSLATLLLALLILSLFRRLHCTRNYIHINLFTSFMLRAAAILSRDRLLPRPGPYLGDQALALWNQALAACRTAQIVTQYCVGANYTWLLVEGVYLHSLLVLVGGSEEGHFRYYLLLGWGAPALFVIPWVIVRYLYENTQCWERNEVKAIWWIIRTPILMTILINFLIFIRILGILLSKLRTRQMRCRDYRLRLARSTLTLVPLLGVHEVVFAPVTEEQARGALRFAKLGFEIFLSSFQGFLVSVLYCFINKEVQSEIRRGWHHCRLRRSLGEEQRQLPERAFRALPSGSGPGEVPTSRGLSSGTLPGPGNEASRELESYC
# Columns and labels:
# Test in all cases: cell-based or functional assay
# [1] = biological target: human GLP-1 receptor (human, UniProt P43220 24-463)
# [2] = biological target: T1, human GIP receptor
# [3] = biological target: human glucagon receptor (human, UniProt P47871 26-477)
# Sequence of human glucagon receptor (P47871 26-477): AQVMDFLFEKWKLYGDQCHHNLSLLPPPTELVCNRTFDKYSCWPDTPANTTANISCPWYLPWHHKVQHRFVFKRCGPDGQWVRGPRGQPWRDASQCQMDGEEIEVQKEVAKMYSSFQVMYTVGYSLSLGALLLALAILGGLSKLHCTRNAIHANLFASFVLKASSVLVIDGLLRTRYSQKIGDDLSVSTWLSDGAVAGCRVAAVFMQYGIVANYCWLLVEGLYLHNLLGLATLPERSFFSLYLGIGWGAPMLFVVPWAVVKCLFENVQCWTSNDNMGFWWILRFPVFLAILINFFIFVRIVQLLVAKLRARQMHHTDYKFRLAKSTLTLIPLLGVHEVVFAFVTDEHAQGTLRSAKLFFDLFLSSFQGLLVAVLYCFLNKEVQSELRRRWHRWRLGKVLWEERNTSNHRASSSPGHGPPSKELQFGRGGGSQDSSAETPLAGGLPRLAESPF
Binder,EC50 hGLP-1 R [pM] (cAMP formation) [1],EC50 hGIP R [pM] (cAMP formation) [2],EC50 hGLUC R [pM] (cAMP formation) [3]
Y[Aib]EGTFTSDLSIQK([γGlu-Stearoyl])DERAA[αMeK]EFIEWLKNTGPSSGAPPPS-NH2 (N-terminus assumed; SMILES CCCCCCCCCCCCCCCCCC(=O)N[C@@H](CCC(=O)NCCCC[C@H](NC(=O)[C@H](CCC(N)=O)NC(=O)[C@@H](NC(=O)[C@H](CO)NC(=O)[C@H](CC(C)C)NC(=O)[C@H](CC(=O)O)NC(=O)[C@H](CO)NC(=O)[C@@H](NC(=O)[C@H](Cc1ccccc1)NC(=O)[C@@H](NC(=O)CNC(=O)[C@H](CCC(=O)O)NC(=O)C(C)(C)NC(=O)[C@@H](N)Cc1ccc(O)cc1)[C@@H](C)O)[C@@H](C)O)[C@@H](C)CC)C(=O)N[C@@H](CC(=O)O)C(=O)N[C@@H](CCC(=O)O)C(=O)N[C@@H](CCCNC(=N)N)C(=O)N[C@@H](C)C(=O)N[C@@H](C)C(=O)N[C@@](C)(CCCCN)C(=O)N[C@@H](CCC(=O)O)C(=O)N[C@@H](Cc1ccccc1)C(=O)N[C@H](C(=O)N[C@@H](CCC(=O)O)C(=O)N[C@@H](Cc1c[nH]c2ccccc12)C(=O)N[C@@H](CC(C)C)C(=O)N[C@@H](CCCCN)C(=O)N[C@@H](CC(N)=O)C(=O)N[C@H](C(=O)NCC(=O)N1CCC[C@H]1C(=O)N[C@@H](CO)C(=O)N[C@@H](CO)C(=O)NCC(=O)N[C@@H](C)C(=O)N1CCC[C@H]1C(=O)N1CCC[C@H]1C(=O)N1CCC[C@H]1C(=O)N[C@@H](CO)C(N)=O)[C@@H](C)O)[C@@H](C)CC)C(=O)O) [SEQ ID NO: 14],7.2,4.5,4730
Y[Aib]EGTFTSDLSIQK([γGlu-Palmitoyl])EERAA[αMeOrn]EFIEWLKNTGPSSGAPPPS-NH2 (N-terminus assumed; SMILES CCCCCCCCCCCCCCCC(=O)N[C@@H](CCC(=O)NCCCC[C@H](NC(=O)[C@H](CCC(N)=O)NC(=O)[C@@H](NC(=O)[C@H](CO)NC(=O)[C@H](CC(C)C)NC(=O)[C@H](CC(=O)O)NC(=O)[C@H](CO)NC(=O)[C@@H](NC(=O)[C@H](Cc1ccccc1)NC(=O)[C@@H](NC(=O)CNC(=O)[C@H](CCC(=O)O)NC(=O)C(C)(C)NC(=O)[C@@H](N)Cc1ccc(O)cc1)[C@@H](C)O)[C@@H](C)O)[C@@H](C)CC)C(=O)N[C@@H](CCC(=O)O)C(=O)N[C@@H](CCC(=O)O)C(=O)N[C@@H](CCCNC(=N)N)C(=O)N[C@@H](C)C(=O)N[C@@H](C)C(=O)N[C@@](C)(CCCN)C(=O)N[C@@H](CCC(=O)O)C(=O)N[C@@H](Cc1ccccc1)C(=O)N[C@H](C(=O)N[C@@H](CCC(=O)O)C(=O)N[C@@H](Cc1c[nH]c2ccccc12)C(=O)N[C@@H](CC(C)C)C(=O)N[C@@H](CCCCN)C(=O)N[C@@H](CC(N)=O)C(=O)N[C@H](C(=O)NCC(=O)N1CCC[C@H]1C(=O)N[C@@H](CO)C(=O)N[C@@H](CO)C(=O)NCC(=O)N[C@@H](C)C(=O)N1CCC[C@H]1C(=O)N1CCC[C@H]1C(=O)N1CCC[C@H]1C(=O)N[C@@H](CO)C(N)=O)[C@@H](C)O)[C@@H](C)CC)C(=O)O) [SEQ ID NO: 10],4.9,7.1,10400
Y[Aib]QGTFTSDLSIQK([γGlu-Stearoyl])DEQRA[d(αMeK)]EFIEWLKSGGPSSGAPPPS-NH2 (N-terminus assumed; SMILES CCCCCCCCCCCCCCCCCC(=O)N[C@@H](CCC(=O)NCCCC[C@H](NC(=O)[C@H](CCC(N)=O)NC(=O)[C@@H](NC(=O)[C@H](CO)NC(=O)[C@H](CC(C)C)NC(=O)[C@H](CC(=O)O)NC(=O)[C@H](CO)NC(=O)[C@@H](NC(=O)[C@H](Cc1ccccc1)NC(=O)[C@@H](NC(=O)CNC(=O)[C@H](CCC(N)=O)NC(=O)C(C)(C)NC(=O)[C@@H](N)Cc1ccc(O)cc1)[C@@H](C)O)[C@@H](C)O)[C@@H](C)CC)C(=O)N[C@@H](CC(=O)O)C(=O)N[C@@H](CCC(=O)O)C(=O)N[C@@H](CCC(N)=O)C(=O)N[C@@H](CCCNC(=N)N)C(=O)N[C@@H](C)C(=O)N[C@](C)(CCCCN)C(=O)N[C@@H](CCC(=O)O)C(=O)N[C@@H](Cc1ccccc1)C(=O)N[C@H](C(=O)N[C@@H](CCC(=O)O)C(=O)N[C@@H](Cc1c[nH]c2ccccc12)C(=O)N[C@@H](CC(C)C)C(=O)N[C@@H](CCCCN)C(=O)N[C@@H](CO)C(=O)NCC(=O)NCC(=O)N1CCC[C@H]1C(=O)N[C@@H](CO)C(=O)N[C@@H](CO)C(=O)NCC(=O)N[C@@H](C)C(=O)N1CCC[C@H]1C(=O)N1CCC[C@H]1C(=O)N1CCC[C@H]1C(=O)N[C@@H](CO)C(N)=O)[C@@H](C)CC)C(=O)O) [SEQ ID NO: 13],13.6,33.1,202
Y[Aib]EGTFTSDLSIQK([γGlu-Palmitoyl])EERAA[Api]EFIEWLKNTGPSSGAPPPS-NH2 (N-terminus assumed; SMILES CCCCCCCCCCCCCCCC(=O)N[C@@H](CCC(=O)NCCCC[C@H](NC(=O)[C@H](CCC(N)=O)NC(=O)[C@@H](NC(=O)[C@H](CO)NC(=O)[C@H](CC(C)C)NC(=O)[C@H](CC(=O)O)NC(=O)[C@H](CO)NC(=O)[C@@H](NC(=O)[C@H](Cc1ccccc1)NC(=O)[C@@H](NC(=O)CNC(=O)[C@H](CCC(=O)O)NC(=O)C(C)(C)NC(=O)[C@@H](N)Cc1ccc(O)cc1)[C@@H](C)O)[C@@H](C)O)[C@@H](C)CC)C(=O)N[C@@H](CCC(=O)O)C(=O)N[C@@H](CCC(=O)O)C(=O)N[C@@H](CCCNC(=N)N)C(=O)N[C@@H](C)C(=O)N[C@@H](C)C(=O)NC1(C(=O)N[C@@H](CCC(=O)O)C(=O)N[C@@H](Cc2ccccc2)C(=O)N[C@H](C(=O)N[C@@H](CCC(=O)O)C(=O)N[C@@H](Cc2c[nH]c3ccccc23)C(=O)N[C@@H](CC(C)C)C(=O)N[C@@H](CCCCN)C(=O)N[C@@H](CC(N)=O)C(=O)N[C@H](C(=O)NCC(=O)N2CCC[C@H]2C(=O)N[C@@H](CO)C(=O)N[C@@H](CO)C(=O)NCC(=O)N[C@@H](C)C(=O)N2CCC[C@H]2C(=O)N2CCC[C@H]2C(=O)N2CCC[C@H]2C(=O)N[C@@H](CO)C(N)=O)[C@@H](C)O)[C@@H](C)CC)CCNCC1)C(=O)O) [SEQ ID NO: 8],4.7,16.3,34700
Y[Aib]QGTFTSDLSKQK([γGlu-Stearoyl])DEQRA[αMeK]EFIEWLKSGGPSSGAPPPS-NH2 (N-terminus assumed; SMILES CCCCCCCCCCCCCCCCCC(=O)N[C@@H](CCC(=O)NCCCC[C@H](NC(=O)[C@H](CCC(N)=O)NC(=O)[C@H](CCCCN)NC(=O)[C@H](CO)NC(=O)[C@H](CC(C)C)NC(=O)[C@H](CC(=O)O)NC(=O)[C@H](CO)NC(=O)[C@@H](NC(=O)[C@H](Cc1ccccc1)NC(=O)[C@@H](NC(=O)CNC(=O)[C@H](CCC(N)=O)NC(=O)C(C)(C)NC(=O)[C@@H](N)Cc1ccc(O)cc1)[C@@H](C)O)[C@@H](C)O)C(=O)N[C@@H](CC(=O)O)C(=O)N[C@@H](CCC(=O)O)C(=O)N[C@@H](CCC(N)=O)C(=O)N[C@@H](CCCNC(=N)N)C(=O)N[C@@H](C)C(=O)N[C@@](C)(CCCCN)C(=O)N[C@@H](CCC(=O)O)C(=O)N[C@@H](Cc1ccccc1)C(=O)N[C@H](C(=O)N[C@@H](CCC(=O)O)C(=O)N[C@@H](Cc1c[nH]c2ccccc12)C(=O)N[C@@H](CC(C)C)C(=O)N[C@@H](CCCCN)C(=O)N[C@@H](CO)C(=O)NCC(=O)NCC(=O)N1CCC[C@H]1C(=O)N[C@@H](CO)C(=O)N[C@@H](CO)C(=O)NCC(=O)N[C@@H](C)C(=O)N1CCC[C@H]1C(=O)N1CCC[C@H]1C(=O)N1CCC[C@H]1C(=O)N[C@@H](CO)C(N)=O)[C@@H](C)CC)C(=O)O) [SEQ ID NO: 12],11.6,27,
Y[Aib]EGTFTSDLSIQK([γGlu-Palmitoyl])EERAA[d(αMeK)]EFIEWLKNTGPSSGAPPPS-NH2 (N-terminus assumed; SMILES CCCCCCCCCCCCCCCC(=O)N[C@@H](CCC(=O)NCCCC[C@H](NC(=O)[C@H](CCC(N)=O)NC(=O)[C@@H](NC(=O)[C@H](CO)NC(=O)[C@H](CC(C)C)NC(=O)[C@H](CC(=O)O)NC(=O)[C@H](CO)NC(=O)[C@@H](NC(=O)[C@H](Cc1ccccc1)NC(=O)[C@@H](NC(=O)CNC(=O)[C@H](CCC(=O)O)NC(=O)C(C)(C)NC(=O)[C@@H](N)Cc1ccc(O)cc1)[C@@H](C)O)[C@@H](C)O)[C@@H](C)CC)C(=O)N[C@@H](CCC(=O)O)C(=O)N[C@@H](CCC(=O)O)C(=O)N[C@@H](CCCNC(=N)N)C(=O)N[C@@H](C)C(=O)N[C@@H](C)C(=O)N[C@](C)(CCCCN)C(=O)N[C@@H](CCC(=O)O)C(=O)N[C@@H](Cc1ccccc1)C(=O)N[C@H](C(=O)N[C@@H](CCC(=O)O)C(=O)N[C@@H](Cc1c[nH]c2ccccc12)C(=O)N[C@@H](CC(C)C)C(=O)N[C@@H](CCCCN)C(=O)N[C@@H](CC(N)=O)C(=O)N[C@H](C(=O)NCC(=O)N1CCC[C@H]1C(=O)N[C@@H](CO)C(=O)N[C@@H](CO)C(=O)NCC(=O)N[C@@H](C)C(=O)N1CCC[C@H]1C(=O)N1CCC[C@H]1C(=O)N1CCC[C@H]1C(=O)N[C@@H](CO)C(N)=O)[C@@H](C)O)[C@@H](C)CC)C(=O)O) [SEQ ID NO: 9],13.5,93.2,> 1e+06
